Experiment [1] has as its target T1, SARS-CoV-2 spike (S) protein trimer, WA01/2020 strain (SARS-CoV-2, WA01/2020 strain, UniProt P0DTC2 16-1213). The experiment can be described thus: dose-response ELISA; antigen taken from the column 'Structural data'. In general terms: ELISA stands for enzyme-linked immunosorbent assay.
Experiment [2] has as its target T1, SARS-CoV-2 spike (S) protein trimer, ….
Experiment [3] concerns the target T2, SARS-CoV-2 nucleocapsid (N) protein (SARS-CoV-2, UniProt P0DTC9 1-419). In words: ELISA, antibody at 0.1 ug/mL.
Experiment [4] concerns the target T3, S1 subunit of the SARS-CoV-2 spike protein, WA01/2020 strain (SARS-CoV-2, WA01/2020 strain, UniProt P0DTC2 16-685). In words: ELISA, antibody at 0.1 ug/mL.
Experiment [5] has as its target T4, S2 subunit of the SARS-CoV-2 spike protein, WA01/2020 strain (SARS-CoV-2, WA01/2020 strain, UniProt P0DTC2 686-1213). The experiment can be described thus: ELISA, antibody at 0.1 ug/mL.
Experiment [6] has as its target T4, S2 subunit of the SARS-CoV-2 spike …. In words: ELISA on S2 (S2 Binding EC50).
Experiment [7] shares this target. The experiment can be described thus: dose-response ELISA; antigen taken from the column 'Structural data'.
The target of experiment [8] is SARS-CoV (2003) spike protein borne on lentiviral pseudovirus (SARS-CoV (2003), UniProt P59594 14-1255). The experiment can be described thus: cell-based or functional assay.
In experiment [9] the target is SARS-CoV-2 spike protein, WA1/2020, borne on lentiviral pseudovirus (SARS-CoV-2, WA01/2020 strain, UniProt P0DTC2 14-1273). In words: cell-based or functional assay.
The target in experiment [10] is T2, SARS-CoV-2 nucleocapsid (N) protein. The experiment can be described thus: ELISA screening, antibody concentration not given.
Experiment [11] has as its target T3, S1 subunit of the SARS-CoV-2 spike …. In words: ELISA screening, antibody concentration not given.
Experiment [12] has as its target T5, MERS-COV (S1+S2).
T5 chain: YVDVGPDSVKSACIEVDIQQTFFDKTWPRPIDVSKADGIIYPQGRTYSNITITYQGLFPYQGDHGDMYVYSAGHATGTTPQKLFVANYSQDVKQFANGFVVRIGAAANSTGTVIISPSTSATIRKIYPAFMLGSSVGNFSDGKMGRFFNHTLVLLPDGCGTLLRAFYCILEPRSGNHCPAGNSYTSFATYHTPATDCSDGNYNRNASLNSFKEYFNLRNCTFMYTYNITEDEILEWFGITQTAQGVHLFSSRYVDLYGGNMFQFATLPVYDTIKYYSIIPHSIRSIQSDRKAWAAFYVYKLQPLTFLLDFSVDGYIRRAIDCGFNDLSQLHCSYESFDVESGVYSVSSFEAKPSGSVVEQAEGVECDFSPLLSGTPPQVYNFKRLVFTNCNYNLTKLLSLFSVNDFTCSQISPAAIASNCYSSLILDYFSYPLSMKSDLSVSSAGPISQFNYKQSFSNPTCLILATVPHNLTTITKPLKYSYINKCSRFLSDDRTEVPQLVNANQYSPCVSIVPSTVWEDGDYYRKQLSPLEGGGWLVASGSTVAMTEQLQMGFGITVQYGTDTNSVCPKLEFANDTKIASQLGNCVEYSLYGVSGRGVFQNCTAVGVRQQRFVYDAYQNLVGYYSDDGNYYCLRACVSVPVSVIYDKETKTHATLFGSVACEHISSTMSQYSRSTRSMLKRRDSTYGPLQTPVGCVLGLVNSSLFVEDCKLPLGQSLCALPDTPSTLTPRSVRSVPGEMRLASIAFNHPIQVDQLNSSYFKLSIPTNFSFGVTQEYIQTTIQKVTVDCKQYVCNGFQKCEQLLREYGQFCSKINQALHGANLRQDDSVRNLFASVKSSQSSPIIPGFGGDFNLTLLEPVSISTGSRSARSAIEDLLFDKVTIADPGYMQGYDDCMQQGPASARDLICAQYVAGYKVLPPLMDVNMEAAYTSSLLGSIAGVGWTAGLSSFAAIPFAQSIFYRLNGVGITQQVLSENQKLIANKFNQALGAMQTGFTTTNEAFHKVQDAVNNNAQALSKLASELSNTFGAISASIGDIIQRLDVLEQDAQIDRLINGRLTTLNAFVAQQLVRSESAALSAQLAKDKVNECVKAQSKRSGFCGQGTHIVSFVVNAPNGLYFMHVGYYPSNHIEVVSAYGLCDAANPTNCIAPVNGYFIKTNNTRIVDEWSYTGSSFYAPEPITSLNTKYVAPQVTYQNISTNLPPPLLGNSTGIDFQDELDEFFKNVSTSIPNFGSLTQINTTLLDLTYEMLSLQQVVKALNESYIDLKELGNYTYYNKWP
In words: dose-response ELISA on coated spike antigen.

Experiment [13] has as its target T6, MERS-COV (S2).
T6 chain: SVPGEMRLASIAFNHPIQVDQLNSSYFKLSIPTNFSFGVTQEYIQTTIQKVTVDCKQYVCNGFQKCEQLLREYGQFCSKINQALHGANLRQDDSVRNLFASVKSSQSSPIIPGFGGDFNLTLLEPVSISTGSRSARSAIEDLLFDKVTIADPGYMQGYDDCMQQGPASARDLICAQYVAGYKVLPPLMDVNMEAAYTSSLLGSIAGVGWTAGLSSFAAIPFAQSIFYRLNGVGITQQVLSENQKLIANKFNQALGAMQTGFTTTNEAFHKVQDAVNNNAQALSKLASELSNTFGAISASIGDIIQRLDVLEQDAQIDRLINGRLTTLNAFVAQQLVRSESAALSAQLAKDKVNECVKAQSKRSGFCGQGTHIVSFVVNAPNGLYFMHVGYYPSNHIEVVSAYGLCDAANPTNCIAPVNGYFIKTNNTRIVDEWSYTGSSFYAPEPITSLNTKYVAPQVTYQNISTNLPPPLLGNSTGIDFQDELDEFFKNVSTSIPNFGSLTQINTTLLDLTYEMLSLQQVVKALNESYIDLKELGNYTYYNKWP
In words: dose-response ELISA on coated spike antigen.

Experiment [14] has as its target T5, MERS-COV (S1+S2). The experiment can be described thus: dose-response ELISA on coated spike antigen.
Experiment [15] has as its target T6, MERS-COV (S2). In words: dose-response ELISA on coated spike antigen.
Experiment [16] concerns the target T3, S1 subunit of the SARS-CoV-2 spike …. The experiment can be described thus: dose-response ELISA; antigen taken from the column 'Structural data'.
Experiment [17] shares this target.

Like-named read-outs stand apart in the source and are kept apart here.

This note sets out measurements from US20230382979A1 (ADAPTIVE BIOTECHNOLOGIES, published 2023).

B1: antibody 2024 (antibody, V domains shown)
VH: QVQLVQSGAEVKKPGASVKVSCKVSGYTLIELSMHWVRQAPGKGLEWMGGFDPEEGETIYAQKFQGRVTMTEDTSTDTAYMELSSLRSEDTAVYYCTTSPPVGATGAWFDPWGQGTLVTVSA
VL: SYVLTQPPSVSVAPGKTARITCGGNNIGSKSVHWYQQKPGQAPVLVVYDDSDRPSGIPERFSGSNSGNTATLTISGLQAEDEADYYCSSYTSSSTVVFGGGTKLTVL
For B1, a half-maximal effect in experiment [1] (EC50) was put at 1.15 nM. Moreover, binding in [2] was put at a Kd of 15.6 nM. Moreover, the binding result in experiment [3], in [4] and in [5] was “no binding (tested: 0.1 ug/mL)” throughout.

B2: antibody 1872 (antibody, V domains shown)
VH: EVQLVESGGGLVKPGGSLRLSCAASGFSFSLYTMNWVRQAPGKGLEWVSYISSSSSYRYYADSVKGRFSVSRDNAKNALYLQMNGLRAEDTAVYYCARDGYCPRGVCTYYGMDVWGQGTTVTVSA
VL: EIVMTQSPATLSVSPGERATLSCRASQSVGSRLAWYQQKPGQAPRLLIYDATIRATGIPARFSGSGSGTDFTLTISGLQSEDFAVYYCQRYNNWPPAYTFGQGTKLEIK
With B2, the EC50 in [6] and in experiment [7] was 0.071 nM in each case. The “Pseudo Neut, SARS-CoV 2003 IC50” value in experiment [8] came to 27 nM. Also, the “Pseudo Neut, WA1/2020 IC50 (pM)” value in experiment [9] stood at 133 pM. For the same molecule, the binding result in [10] was “no binding (tested: not printed)”; in experiment [11], “no binding (tested: not printed)”; in the experiment with MERS-COV (S1+S2) [12] it was “no binding (tested: 10000 ng/ml)”; with MERS-COV (S2) [13] it was “no binding (tested: 10000 ng/ml)”.

B3: antibody 1859 (antibody, V domains shown)
VH: EVQLVESGGGLVKPGGSLRLSCAASGFSFNTYTMNWVRQAPGKGLEWVSYISSSSSYKYYSDSVKGRFSVSRDNAKKSLYLQMNGLRAEDTAVYYCARDGYCPNGVCTYYGMDVWGQGTTVTVSL
VL: EIVMTQSPATLSVSPGERATLSCRASQSVSSNLAWYQQKPGQAPRLLIYGASTRATGIPARFSGSGSGTEFTLTISGLQSEDFAVYFCQQYSKWPPAYTFGQGTKLEIK
As to B3, the EC50 in experiment [6] and in experiment [7] was 1.22 nM in each case. Further, the binding result is reported as “no binding (tested: 10000 ng/ml)” in the experiment with MERS-COV (S1+S2) [14], “no binding (tested: 10000 ng/ml)” with MERS-COV (S2) [15], “no binding (tested: not printed)” in [10] and “no binding (tested: not printed)” in experiment [11]. Moreover, the “Pseudo Neut, SARS-CoV 2003 IC50” value in experiment [8] was 115 nM. Besides, in experiment [9], the “Pseudo Neut, WA1/2020 IC50 (pM)” value was 889 pM.

B4: antibody 2080 (antibody, V domains shown)
VH: QVQLQQWGAGLLKPSETLSLTCAVYGGSFSGYYWSWIRQPPGKGLEWIGRINDIGSTDYNPSLKSRVTISVDTSKNQFSLKLTSVTAADTAVYYCAREPFDSEGTFDYWGQGTLVIVSS
VL: DIQMTQPPSTLSASVGDRVTITCRASQSISRWLAWYRQKPGKAPKLLIYDASSLQSGVPSRFSGSGSGTEFTLTISSLQPDDLATYYCQQYNTYPYTFGQGTKLEIK
Consider B4, for which the EC50 – broadly, the midpoint of the concentration-response curve – in experiment [16] was 0.025 nM. Moreover, the Kd (commonly the equilibrium constant for the complex coming apart) in [17] worked out at 0.69 nM.
